Earlier results on 1 substance are cited in publication PMC3466315.

The data set deals with NifL 1-140 (Azotobacter vinelandii) (UniProt P30663). The settings on record: cited from earlier work.

Chain of NifL 1-140 (P30663 1-140): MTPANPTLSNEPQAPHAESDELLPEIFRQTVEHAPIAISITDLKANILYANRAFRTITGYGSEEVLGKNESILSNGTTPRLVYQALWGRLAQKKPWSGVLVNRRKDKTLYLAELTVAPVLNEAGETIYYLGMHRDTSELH

What is called Kd is the free concentration of one partner at which half of the binding sites on the other are occupied at equilibrium, for simple one-to-one binding. For NifL 1-140 (from UniProt P30663), the dissociation constant (Kd) was 150 nM.
